Measured values published in patent US20180148474A1 (KOREA UNIVERSITY RESEARCH AND BUSINESS FOUNDATION SEJONG …, published 2018).

B1: Compound 5 (peptide derivative of Formula 5): CH3CONH-Ala-Arg-Gln-Arg-Ala-Ser-Ala-COOH (peptide)
peptide: Ac-ARQRASA-OH
B2: Compound 3 (peptide derivative of Formula 3): CH3CONH-Arg-Gln-Arg-Ala-Ser-Ala-COOH (peptide)
peptide: Ac-RQRASA-OH
B3: Compound 4 (peptide derivative of Formula 4): H2N-Ala-Arg-Gln-Arg-Ala-Ser-Ala-COOH (peptide)
peptide: H-ARQRASA-OH
B4: Compound 2 (peptide derivative of Formula 2): H2N-Arg-Gln-Arg-Ala-Ser-Ala-COOH (peptide)
peptide: H-RQRASA-OH

The binders below were run against thymic stromal lymphopoietin (TSLP) (assay: cell-based or functional assay).
Chain of thymic stromal lymphopoietin (TSLP) (Q969D9 29-159): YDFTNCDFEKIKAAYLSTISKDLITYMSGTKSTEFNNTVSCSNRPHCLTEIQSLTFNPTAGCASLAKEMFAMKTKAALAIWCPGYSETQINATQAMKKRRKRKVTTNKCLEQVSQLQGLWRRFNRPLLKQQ

Binder | Degrees of phosphorylation of STAT5 molecules in cells (%), 0.3 µM peptide mixed with TSLP 100 ng/mL, HMC-1 cells, flow cytometry; control with TSLP alone = 100% | Degrees of phosphorylation of STAT5 molecules in cells (%), 3 µM peptide mixed with TSLP 100 ng/mL, HMC-1 cells, flow cytometry; control with TSLP alone = 100% | Degrees of phosphorylation of STAT5 molecules in cells (%), 30 µM peptide mixed with TSLP 100 ng/mL, HMC-1 cells, flow cytometry; control with TSLP alone = 100%
B1 | 86.1% | 84.6% | 77.1%
B2 | 73.5% | 67.8% | 66.9%
B3 | 71% | 68.3% | 70.9%
B4 | 84.4% | 77.9% | 69.8%
